According to patent publication EP1007666B1:

Columns and labels:
[1] = molecular target: rat NTNRα, endogenous on embryonic rat spinal motoneurons (rat); assay: cell-based or functional assay
[2] = molecular target: recombinant soluble rat GDNFRα (rat) (UniProt Q62997); assay: binding experiments with biotinylated ligand, format not described
[3] = molecular target: recombinant soluble rat GDNFRα (rat) (UniProt Q62997); assay: displacement of labelled rGDNF from soluble GDNFRα by 10 nM unlabeled NTN

Sequence of recombinant soluble rat GDNFRα (rat) (Q62997 25-430 limits assumed): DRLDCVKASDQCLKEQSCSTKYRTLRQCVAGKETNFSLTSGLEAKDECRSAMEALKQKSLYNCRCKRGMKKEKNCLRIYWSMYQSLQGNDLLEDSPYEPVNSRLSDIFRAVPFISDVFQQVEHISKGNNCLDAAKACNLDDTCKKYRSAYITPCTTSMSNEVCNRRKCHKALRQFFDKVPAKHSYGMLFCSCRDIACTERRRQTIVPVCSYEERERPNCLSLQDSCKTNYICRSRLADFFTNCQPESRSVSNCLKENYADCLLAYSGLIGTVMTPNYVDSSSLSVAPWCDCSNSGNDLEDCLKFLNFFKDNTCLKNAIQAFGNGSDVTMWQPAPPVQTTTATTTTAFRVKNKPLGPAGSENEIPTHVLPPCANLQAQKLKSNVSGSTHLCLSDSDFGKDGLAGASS

Kd [2]: > 1000 µM
Kd [3]: 0.001 µM
Substance: Neurturin (NTN), species not stated at these places (ligand)
survival of E14 rat spinal motoneurons at 72 hours [1]: 50%
